Our source for the Kd, koff and kon values is article PMC9601775 (Protein Science : A Publication of the Protein Society, 2022).

Substitutions are numbered along the chain they refer to. Names may count otherwise.

Holding throughout (assay): SPR; Biacore 8K; EGFR extracellular domain immobilised on CM5 chip by amine coupling (~1000 RU); VHHs injected in two-fold serial dilutions at 30 μl/min; 25°C; PBS with 0.005% Tween20
Holding throughout (conditions): both partners purified

The target of test [1] is T1, extracellular domain of epidermal growth factor receptor (EGFR), residues 1–618 (Homo sapiens (; human EGFR in …, UniProt P00533).
T1 construct: Epidermal growth factor receptor (EGFR), extracellular domain, residues 1-618; also called extracellular domain of EGFR; source: Sf9 expression system (baculovirus), purified from the culture supernatant (Ni-NTA, SEC)

Test [2] deals with T1, extracellular domain of epidermal …. The source holds these as a separate data set.
Test [3] shares this target. The source holds these as a separate data set.

B1: 7D12‐Vob Y42F (VHH)
VHH: EVQLVESGGGLVQPGGSLRLSCAASGRTSRSYGMGWFRQAPGKGRELVAGISWRGDSTGYADSVKGRFTISRDNAKNTLYLQMNSLRPEDTAVYYCAFAAGSAWYGTLYEYDYWGQGTLVTVSS
notes: PDB 7XL1) with the stated change; IMGT numbering; source: E. coli BL21(DE3), periplasmic fraction, purified (Ni-NTA, SEC)
As for B1, in test [1], binding was put at a Kd of 191 nM, the off-rate constant (koff) is 0.137 s⁻¹ and the kon worked out at 713000 M⁻¹ s⁻¹.

B2: 7D12‐Vob Y42F‐L52F (VHH)
VHH: B1 VHH with L47F
notes: PDB 7XL1) with the stated changes; IMGT numbering; source: E. coli BL21(DE3), periplasmic fraction, purified (Ni-NTA, SEC)
In test [1], B2 displayed an equilibrium dissociation constant (Kd) of 110 nM, a koff of 0.0799 s⁻¹ and a kon of 729000 M⁻¹ s⁻¹.

B3: 7D12‐Vob (VHH)
VHH: B1 VHH with F37Y
notes: CDRs of 7D12 grafted onto the framework regions of Vobarilizumab; PDB 7XL1; also called chimeric VHH; source: E. coli BL21(DE3), periplasmic fraction, purified (Ni-NTA, SEC)
In test [2], B3 came in with a Kd of 1450 nM, a koff of 0.247 s⁻¹ and a kon of 169000 M⁻¹ s⁻¹.

B4: 7D12‐Vob Y42F‐L52F‐F106A (VHH)
VHH: B1 VHH with L47F, F98A
notes: PDB 7XL1) with the stated changes; IMGT numbering; also called triple mutant; source: E. coli BL21(DE3), periplasmic fraction, purified (Ni-NTA, SEC)
In test [1], B4 gave a dissociation constant Kd of 38 nM, a koff of 0.0693 s⁻¹ and an on-rate (kon) of 1.82e+06 M⁻¹ s⁻¹.

B5: 7D12‐Vob L52F (VHH)
VHH: B1 VHH with F37Y, L47F
notes: as for B1
In test [1], B5 returned a dissociation constant Kd of 358 nM, a koff of 0.123 s⁻¹ and an on-rate constant (kon) of 344000 M⁻¹ s⁻¹.

B6: 7D12‐Vob F106A (VHH)
VHH: B1 VHH with F37Y, F98A
notes: as for B1
In test [1], B6 returned a Kd of 482 nM, a koff of 0.152 s⁻¹ and a kon of 316000 M⁻¹ s⁻¹.

B7: 7D12‐Vob E1Q‐Y42F‐L52F‐F106A (VHH)
VHH: B1 VHH with E1Q, L47F, F98A
notes: PDB 7XL1) with the stated changes; IMGT numbering; also called quadruple mutant; source: E. coli BL21(DE3), periplasmic fraction, purified (Ni-NTA, SEC)
Consider B7, for which binding in test [3] was put at a Kd of 4.7 nM. This counts as single-digit nanomolar.
